Measurements published in patent publication US6465220B1, “Glycosylation using GalNac-T4 transferase” (GlycoZym ApS, priority 1998, dated 2002).

Substrate: C[C@H](NC(=O)[C@H](C)NC(=O)[C@@H](NC(=O)[C@@H](NC(=O)[C@H](CCC(=O)O)NC(=O)[C@@H]1CCCN1C(=O)[C@@H]1CCCN1C(=O)[C@H](C)NC(=O)[C@H](CO)NC(=O)[C@H](CO)NC(=O)[C@H](CO)NC(=O)[C@@H]1CCCN1C(=O)[C@@H]1CCCN1C(=O)[C@H](C)NC(=O)[C@@H]1CCCN1C(=O)[C@@H](NC(=O)[C@@H](NC(=O)[C@H](C)NC(=O)[C@H](CO)NC(=O)[C@@H]1CCCN1C(=O)[C@@H](NC(=O)[C@@H]1CCCN1C(=O)[C@@H]1CCCN1C(=O)[C@@H](N)CS)[C@@H](C)O)[C@@H](C)O)[C@@H](C)O)[C@@H](C)O)[C@@H](C)O)C(=O)O
Assay: GalNAc-transferase assay with purified recombinant GalNAc-T1
Format: biochemical, human
Conditions: other: acceptor substrate; pH 7.5
Protocol: The following examples are provided to illustrate certain preferred embodiments of the invention, and should be considered as illustration and not as limitation. In the examples, GalNAc-transferase assays were performed in 50 μl total reaction mixtures containing 25 mM cacodylate (pH 7.5), 10 mM MnCl2, 0.1-0.25% Triton X-100, 150-200 μM UDP-[^14C]-GalNAc (4,000 cpm/nmole) (Amersham) and 0.06-1 mM acceptor peptides. Peptides were either synthesized or obtained from Carlbiotech (Copenhagen), or Neosystems (Strasbourg), and quality was ascertained by amino acid analysis and mass spectrometry. Peptides Muc-1a, Muc-1b, and TAP24, were derived from the tandem repeat of human MUC1, Gendler et al., J. Biol. Chem. 265:15286 (1990), and Muc2, Muc5AC, and Muc7 from the tandem repeats of MUC2, MUC5AC, and MUC7, respectively. Gum et al., J. Biol. Chem. 264:6480 (1989); Porchet et al., Biochem. Soc. Trans. 23:800 (1995); Bobek et al., J. Biol. Chem. 268:20563 (1993). GalNAc4TAP24 was produced by in vitro glycosylation using GalNAc-T2 as described in Wandall et al., J. Biol. Chem. 272:23503 (1997). Products were quantified by scintillation counting after chromatography on Dowex-1, octadecyl silica cartridges (Bakerbond), or HPLC (PC3.2/3 or mRPC C2/C18 SC2.1/10 Pharmacia, Smart System). Products produced by in vitro glycosylation were in most cases also confirmed by mass spectrometry. […]

B1: GalNAc-T1 (Homo sapiens) (protein)
chain: GLPAGDVLEPVQKPHEGPGEMGKPVVIPKEDQEKMKEMFKINQFNLMASEMIALNRSLPDVRLEGCKTKVYPDNLPTTSVVIVFHNEAWSTLLRTVHSVINRSPRHMIEEIVLVDDASERDFLKRPLESYVKKLKVPVHVIRMEQRSGLIRARLKGAAVSKGQVITFLDAHCECTVGWLEPLLARIKHDRRTVVCPIIDVISDDTFEYMAGSDMTYGGFNWKLNFRWYPVPQREMDRRKGDRTLPVRTPTMAGGLFSIDRDYFQEIGTYDAGMDIWGGENLEISFRIWQCGGTLEIVTCSHVGHVFRKATPYTFPGGTGQIINKNNRRLAEVWMDEFKNFFYIISPGVTKVDYGDISSRVGLRHKLQCKPFSWYLENIYPDSQIPRHYFSLGEIRNVETNQCLDNMARKENEKVGIFNCHGMGGNQVFSYTANKEIRTDDLCLDVSKLNGPVTMLKCHHLKGNQLWEYDPVKLTLQHVNSNQCLDKATEEDSQVPSIRDCNGSRSQQWLLRNVTLPEIF
notes: Control constructs pAcGP67-GalNAc-T1-sol, pAcGP67-GalNAc-T2-sol, pAcGP67-GalNAc-T3-sol, and pAcGP67-O^2-sol were prepared as previously described; made in house; host or cells: insect cells (baculovirus, pAcGP67)
Km: 0.04 mM
Vmax: 0.76 nmol/min/µg
